Measurements published in IntAct's records for PubMed 23706739.

B1: Proteasome activator complex subunit 4 (Homo sapiens), Q14997 (parent)
chain: MEPAERAGVGEPPEPGGRPEPGPRGFVPQKEIVYNKLLPYAERLDAESDLQLAQIKCNLGRAVQLQELWPGGLFWTRKLSTYIRLYGRKFSKEDHVLFIKLLYELVSIPKLEISMMQGFARLLINLLKKKELLSRADLELPWRPLYDMVERILYSKTEHLGLNWFPNSVENILKTLVKSCRPYFPADATAEMLEEWRPLMCPFDVTMQKAITYFEIFLPTSLPPELHHKGFKLWFDELIGLWVSVQNLPQWEGQLVNLFARLATDNIGYIDWDPYVPKIFTRILRSLNLPVGSSQVLVPRFLTNAYDIGHAVIWITAMMGGPSKLVQKHLAGLFNSITSFYHPSNNGRWLNKLMKLLQRLPNSVVRRLHRERYKKPSWLTPVPDSHKLTDQDVTDFVQCIIQPVLLAMFSKTGSLEAAQALQNLALMRPELVIPPVLERTYPALETLTEPHQLTATLSCVIGVARSLVSGGRWFPEGPTHMLPLLMRALPGVDPNDFSKCMITFQFIATFSTLVPLVDCSSVLQERNDLTEVERELCSATAEFEDFVLQFMDRCFGLIESSTLEQTREETETEKMTHLESLVELGLSSTFSTILTQCSKEIFMVALQKVFNFSTSHIFETRVAGRMVADMCRAAVKCCPEESLKLFVPHCCSVITQLTMNDDVLNDEELDKELLWNLQLLSEITRVDGRKLLLYREQLVKILQRTLHLTCKQGYTLSCNLLHHLLRSTTLIYPTEYCSVPGGFDKPPSEYFPIKDWGKPGDLWNLGIQWHVPSSEEVSFAFYLLDSFLQPELVKLQHCGDGKLEMSRDDILQSLTIVHNCLIGSGNLLPPLKGEPVTNLVPSMVSLEETKLYTGLEYDLSRENHREVIATVIRKLLNHILDNSEDDTKSLFLIIKIIGDLLQFQGSHKHEFDSRWKSFNLVKKSMENRLHGKKQHIRALLIDRVMLQHELRTLTVEGCEYKKIHQDMIRDLLRLSTSSYSQVRNKAQQTFFAALGAYNFCCRDIIPLVLEFLRPDRQGVTQQQFKGALYCLLGNHSGVCLANLHDWDCIVQTWPAIVSSGLSQAMSLEKPSIVRLFDDLAEKIHRQYETIGLDFTIPKSCVEIAELLQQSKNPSINQILLSPEKIKEGIKRQQEKNADALRNYENLVDTLLDGVEQRNLPWKFEHIGIGLLSLLLRDDRVLPLRAIRFFVENLNHDAIVVRKMAISAVAGILKQLKRTHKKLTINPCEISGCPKPTQIIAGDRPDNHWLHYDSKTIPRTKKEWESSCFVEKTHWGYYTWPKNMVVYAGVEEQPKLGRSREDMTEAEQIIFDHFSDPKFVEQLITFLSLEDRKGKDKFNPRRFCLFKGIFRNFDDAFLPVLKPHLEHLVADSHESTQRCVAEIIAGLIRGSKHWTFEKVEKLWELLCPLLRTALSNITVETYNDWGACIATSCESRDPRKLHWLFELLLESPLSGEGGSFVDACRLYVLQGGLAQQEWRVPELLHRLLKYLEPKLTQVYKNVRERIGSVLTYIFMIDVSLPNTTPTISPHVPEFTARILEKLKPLMDVDEEIQNHVMEENGIGEEDERTQGIKLLKTILKWLMASAGRSFSTAVTEQLQLLPLFFKIAPVENDNSYDELKRDAKLCLSLMSQGLLYPHQVPLVLQVLKQTARSSSWHARYTVLTYLQTMVFYNLFIFLNNEDAVKDIRWLVISLLEDEQLEVREMAATTLSGLLQCNFLTMDSPMQIHFEQLCKTKLPKKRKRDPGSVGDTIPSAELVKRHAGVLGLGACVLSSPYDVPTWMPQLLMNLSAHLNDPQPIEMTVKKTLSNFRRTHHDNWQEHKQQFTDDQLLVLTDLLVSPCYYA

Variants of: B1
Conditions: with h4_human H4C16, P62805

Row | Variant | effect of a mutation on the interaction
1 | N1716T;F1717S | disrupting interaction strength
